This test deals with α5β1 integrin on CD14+ blood monocytes of the dosed animals. Nature of the test: FACS occupancy on blood monocytes compared with serum levels of M200.

B1: M200 chimeric (mouse/human IgG4) anti-α5β1 integrin antibody (antibody, V domains shown)
VH: QVQLKESGPGLVAPSQSLSITCTISGFSLTDYGVHWVRQPPGKGLEWLVVIWSDGSSTYNSALKSRMTIRKDNSKSQVFLIMNSLQTDDSAMYYCARHGTYYGMTTTGDALDYWGQGTSVTVSS
VL: QIVLTQSPAIMSASLGERVTMTCTASSSVSSNYLHWYQQKPGSAPNLWIYSTSNLASGVPARFSGSGSGTSYSLTISSMEAEDAATYYCHQYLRSPPTFGGGTKLEIKR
In the case of B1, the serum concentration sufficient to completely saturate monocyte α5β1 integrin binding sites came out at 60 µg/mL.

The values are drawn from patent publication US20050002930A1.
